Measured values reported in patent EP2495257A2 (Abbott Laboratories, dated 2012).
Values belong to the binder of their own block, whether it stands above or below them.

How the values were obtained:
[1] = target: T1, human IL-18 (human, UniProt Q14116 37-193); assay: cell-based or functional assay
[2] = target: T1, human IL-18; assay: SPR (Biacore)
[3] = target: T2, human IL-12 (human, UniProt P29459 23-219; P29460 23-328); assay: cell-based or functional assay
T2 sequence (looked up) 1: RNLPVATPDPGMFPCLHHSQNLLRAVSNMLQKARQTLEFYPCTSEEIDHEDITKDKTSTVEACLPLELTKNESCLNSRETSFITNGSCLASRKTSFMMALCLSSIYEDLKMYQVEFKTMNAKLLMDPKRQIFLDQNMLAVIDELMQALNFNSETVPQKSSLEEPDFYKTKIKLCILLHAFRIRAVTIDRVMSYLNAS
T2 sequence (looked up) 2: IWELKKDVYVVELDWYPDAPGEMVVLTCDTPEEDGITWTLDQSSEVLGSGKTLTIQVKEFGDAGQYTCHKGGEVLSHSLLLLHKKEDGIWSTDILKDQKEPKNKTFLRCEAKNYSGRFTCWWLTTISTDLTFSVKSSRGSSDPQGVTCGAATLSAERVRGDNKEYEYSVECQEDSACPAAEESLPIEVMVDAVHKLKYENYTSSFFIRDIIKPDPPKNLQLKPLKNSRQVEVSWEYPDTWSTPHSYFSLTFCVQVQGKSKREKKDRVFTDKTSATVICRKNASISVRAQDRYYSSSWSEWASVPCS

Potency (IC50, M), KG-1 bioassay [1]: 7.8e-11 M
B1: DVD1812LL (anti-IL-18/IL-12 DVD-Ig, 18-12-C, long linker) (bispecific antibody, human IgG1, kappa)
heavy: not shown
light: EIVMTQSPATLSVSPGERATLSCRASESISSNLAWYQQKPGQAPRLFIYTASTRATDIPARFSGSGSGTEFTLTISSLQSEDFAVYYCQQYNNWPSITFGQGTRLEIKRTVAAPSVFIFPPQSVLTQPPSVSGAPGQRVTISCSGSRSNIGSNTVKWYQQLPGTAPKLLIYYNDQRPSGVPDRFSGSKSGTSASLAITGLQAEDEADYYCQSYDRYTHPALLFGTGTKVTVLGTVAAPSVFIFPPSDEQLKSGTASVVCLLNNFYPREAKVQWKVDNALQSGNSQESVTEQDSKDSTYSLSSTLTLSKADYEKHKVYACEVTHQGLSSPVTKSFNRGEC

IC50 (M), KG-1 bioassay (IL-18-induced IFN-γ production) [1]: 3e-10 M
B2: ABT-325 (fully human anti-human IL-18 mAb) (antibody, V domains shown)
VH: EVQLVQSGTEVKKPGESLKISCKGSGYTVTSYWIGWVRQMPGKGLEWMGFIYPGDSETRYSPTFQGQVTISADKSFNTAFLQWSSLKASDTAMYYCARVGSGWYPYTFDIWGQGTMVTVSS
VL: not shown

Potency (IC50, M), KG-1 bioassay [1]: 4e-11 M | Kd [2]: 0.11 nM
B3: DVD1812SL (anti-IL-18/IL-12 DVD-Ig, 18-12-C, short linker) (bispecific antibody, human IgG1, kappa)
heavy: not shown
light: EIVMTQSPATLSVSPGERATLSCRASESISSNLAWYQQKPGQAPRLFIYTASTRATDIPARFSGSGSGTEFTLTISSLQSEDFAVYYCQQYNNWPSITFGQGTRLEIKRTVAAPQSVLTQPPSVSGAPGQRVTISCSGSRSNIGSNTVKWYQQLPGTAPKLLIYYNDQRPSGVPDRFSGSKSGTSASLAITGLQAEDEADYYCQSYDRYTHPALLFGTGTKVTVLGTVAAPSVFIFPPSDEQLKSGTASVVCLLNNFYPREAKVQWKVDNALQSGNSQESVTEQDSKDSTYSLSSTLTLSKADYEKHKVYACEVTHQGLSSPVTKSFNRGEC
notes: also called DVD1812HC-SL / DVD1812LC-SL

IC50 (M), IL-12-induced IFN-γ production by PHA blast cells [3]: 5e-12 M
B4: ABT-874 (fully human anti-human IL-12p40 mAb) (antibody, V domains shown)
VH: QVQLVESGGGVVQPGRSLRLSCAASGFTFSSYGMHWVRQAPGKGLEWVAFIRYDGSNKYYADSVKGRFTISRDNSKNTLYLQMNSLRAEDTAVYYCKTHGSHDNWGQGTMVTVSS
VL: QSVLTQPPSVSGAPGQRVTISCSGSRSNIGSNTVKWYQQLPGTAPKLLIYYNDQRPSGVPDRFSGSKSGTSASLAITGLQAEDEADYYCQSYDRYTHPALLFGTGTKVTVLG
